Where “and” joins values, the source holds several entries; their conditions need not be identical. Equal entries are not always repeated.
Key:
[1] = Post-injection bleb volume, area, height - caliper measurement; type: in vivo, Yucatan miniature pig (Sus scrofa domestica)
Description: The needle was inserted vertically into the marked injection site and the HVAI held in place by hand. Target needle insertion depth was ˜10 mm. Injections were timed using a stopwatch. Upon completion of the injection the needle was removed and the HVAI device discarded. Test solution back-leakage was then absorbed to a tared eye-spear for 30 seconds on the injection site and the weight of the eye spear was measured using an analytical balance. The margins of the injection site bleb were marked with a permanent marker and measured for length, width, and height using a digital caliper and recorded then photographed with the standard and 3D cameras. Caliper measurements and photographs were taken immediately post-injection. Local injection sites were qualitatively assessed and graded daily for erythema severity, swelling size appearance, and firmness, using a scoring system described in Table 4 Table 5, and Table 6, respectively.
Assessment of Local Swelling Volume and Area Using Caliper Measurement and 3D Imaging. Volume and area of post-injection swelling were measured using both caliper measurement and 3D camera image analysis. For caliper measurements a digital caliper was utilized to measure length, width and height of the bleb that formed post-injection. The length and width are defined as the edge to edge measurements of the bleb (i.e., diameter) along their longest axes. These values were manually recorded, and the volume determined using the formula for half of an ellipsoid Vol=(⅔)*π*A*B*C where A=Length/2, B=Width/2 and C=Height.
Assessment of Post-Injection Bleb Volume, Area and Height (Caliper Measurements). The local injection site swelling (bleb) was marked and measured using a digital caliper.

[2] = Enhertu analytes (TAB, TADC, free payload) in skin tissue homogenates of injection site; type: in vivo, Yucatan miniature pig (Sus scrofa domestica)
Description: Porcine serum was used as surrogate matrix to prepare calibration standards and quality controls for skin sample quantitation. Untreated blank porcine skin was provided for preparation of monitoring quality controls. The porcine skin was homogenized at an approximate ratio of 0.5 mL of buffer for every 100 mg of skin. […] The monitoring controls were analyzed during the method performance evaluation. The following were selected for monitoring in the assay (Table 83).
Porcine serum was used as surrogate matrix to prepare calibration standards and quality controls for the quantitation of skin samples. […] The porcine skin was homogenized at an approximate ratio of 0.5 mL of buffer for every 100 mg of skin. […] These were analyzed during the method performance evaluation.
This sample was divided vertically into two identical pieces. One skin sample was placed into a pre-weighed cryogenic tube and its weight was recorded then stored on dry ice prior to transfer to ≤−70° C. The other skin sample was processed for potential future histological assessment into OCT freezing media and frozen on dry ice.
Animals received two SC doses on their lower abdominal region.
Two cohorts were included in the follow-on study. […] Each animal had two full thickness skin biopsies taken post-mortem using a 12 mm punch. This sample was divided vertically into two identical pieces. One skin sample was placed into a pre-weighed cryogenic tube and its weight was recorded, then stored on dry ice prior to transfer to ≤−70° C. The other skin sample was processed into OCT molds for potential future histological assessment.
Tissue lysates were prepared based upon the weight of the sample at a ratio of 0.2 g/mL homogenization buffer (Tables 81 and 82). The total protein concentration of each homogenate was determined by BCA assay. The concentration of the total ADC (TADC), total antibody (TAB) and free payload (deruxtecan) in each sample was then normalized to the protein concentration and reported in μg analyte per mg total protein.
In this study, six animals were used. […] Two cohorts were included in this study. Cohort 1 was euthanized 24 hours after treatment, while Cohort 2 was euthanized 48 hours after exposure to the two test solutions.

[3] = Example 4 Study #1: bleb after 20 mL SC
[4] = Example 4 Study #2: bleb after 20 mL SC
[5] = 24 hours after SC administration
[6] = 48 hours after SC administration
[7] = SC, day 1, individual animal, listed as ADC
[8] = SC, day 2, individual animal, listed as ADC
[9] = SC, day 7, individual animal, listed as ADC
[10] = SC, individual series, listed as ADC

Substance: Sacituzumab govitecan [Trodelvy]
- Height (mm) (Mean ± SEM) [1, 3]: 10.8 ± 0.6 mm
- Volume (cc) (Mean ± SEM) [1, 3]: 65.5 ± 3.6 cc
- Height (mm) (Mean ± SEM) [1, 4]: 10.8 ± 0.6 mm
- Volume (cc) (Mean ± SEM) [1, 4]: 65.5 ± 3.6 cc
- Post-injection bleb Area, caliper (Mean ± SEM) ([1]; minipig, 10 mL SC by HVAI, Trodelvy (ADC) ± rHuPH20 2000 U/mL, T0, n=3, Examples 1, 2, 5): 25.4 ± 0.5
- Post-injection bleb Volume, caliper (Mean ± SEM) ([1]; minipig, 10 mL SC by HVAI, Trodelvy (ADC) ± rHuPH20 2000 U/mL, T0, n=3, Examples 1, 2, 5 (FIG. 3: mL)): 44.3 ± 4.0
- Post-injection bleb Height, caliper (Mean ± SEM) ([1]; minipig, 10 mL SC by HVAI, Trodelvy (ADC) ± rHuPH20 2000 U/mL, T0, n=3, Examples 1, 2, 5 (FIG. 5: mm)): 8.7 ± 0.7
- Mean ADC in minipig skin [2, 5]: 24.21
- Mean antibody (Ab) in minipig skin [2, 5]: 27.65
- Mean payload in minipig skin [2, 5]: 0.02
- Mean ADC in minipig skin [2, 6]: 6.92
- Mean antibody (Ab) in minipig skin [2, 6]: 7.97
- Mean payload in minipig skin [2, 6]: 0.00
- Mean skin concentration, Free Payload ([2]; SC, 24 h post-injection): 0.02 μg/mg protein
- Mean skin concentration, Total ADC (TADC) ([2]; SC, 24 h post-injection): 24.21 μg/mg protein
- Mean skin concentration, Total Antibody (TAB) ([2]; SC, 24 h post-injection): 27.65 μg/mg protein
- Mean skin concentration, Free Payload ([2]; SC, 48 h post-injection): 0.0042 μg/mg protein
- Mean skin concentration, Total ADC (TADC) ([2]; SC, 48 h post-injection): 6.92 μg/mg protein
- Mean skin concentration, Total Antibody (TAB) ([2]; SC, 48 h post-injection): 7.97 μg/mg protein
- Mean skin concentration, Free Payload ([2]; SC, 168 h post-injection): 0.0004 μg/mg protein
- Mean skin concentration, Total ADC (TADC) ([2]; SC, 168 h post-injection): 0.57 μg/mg protein
- Mean skin concentration, Total Antibody (TAB) ([2]; SC, 168 h post-injection): 0.73 μg/mg protein
- Concentration of free payload in the skin of minipigs [2, 7]: 0.026 ug/mg protein and 0.020 ug/mg protein and 0.011 ug/mg protein
- Total ADC concentration in the skin of minipigs [2, 7]: 38.48 ug/mg protein and 22.00 ug/mg protein and 12.15 ug/mg protein
- Total antibody concentration in the skin of minipigs [2, 7]: 44.05 ug/mg protein and 22.63 ug/mg protein and 16.28 ug/mg protein
- Concentration of free payload in the skin of minipigs ([2]; SC, day 1, mean): 0.02 ug/mg protein
- Total ADC concentration in the skin of minipigs ([2]; SC, day 1, mean): 24.21 ug/mg protein
- Total antibody concentration in the skin of minipigs ([2]; SC, day 1, mean): 27.65 ug/mg protein
- Concentration of free payload in the skin of minipigs [2, 8]: 0.003 ug/mg protein and 0.005 ug/mg protein (2×)
- Total ADC concentration in the skin of minipigs [2, 8]: 5.97 ug/mg protein and 6.98 ug/mg protein and 7.80 ug/mg protein
- Total antibody concentration in the skin of minipigs [2, 8]: 7.70 ug/mg protein and 8.07 ug/mg protein and 8.14 ug/mg protein
- Concentration of free payload in the skin of minipigs ([2]; SC, day 2, mean): 0.00 ug/mg protein
- Total ADC concentration in the skin of minipigs ([2]; SC, day 2, mean): 6.92 ug/mg protein
- Total antibody concentration in the skin of minipigs ([2]; SC, day 2, mean): 7.97 ug/mg protein
- Concentration of free payload in the skin of minipigs [2, 9]: 0.001 ug/mg protein and 0.000 ug/mg protein (2×)
- Total ADC concentration in the skin of minipigs [2, 9]: 0.69 ug/mg protein and 0.48 ug/mg protein and 0.55 ug/mg protein
- Total antibody concentration in the skin of minipigs [2, 9]: 0.68 ug/mg protein and 0.72 ug/mg protein and 0.79 ug/mg protein
- Concentration of free payload in the skin of minipigs ([2]; SC, day 7, mean): 0.00 ug/mg protein
- Total ADC concentration in the skin of minipigs ([2]; SC, day 7, mean): 0.57 ug/mg protein
- Total antibody concentration in the skin of minipigs ([2]; SC, day 7, mean): 0.73 ug/mg protein
- AUC1-7, free payload in skin [2, 10]: 0.024 ug*day/mL (2×) and 0.021 ug*day/mL
- AUC1-7, total ADC in skin [2, 10]: 38.87 µg·days/mL and 33.14 µg·days/mL and 30.85 µg·days/mL
- AUC1-7, total antibody in skin [2, 10]: 46.85 µg·days/mL and 37.33 µg·days/mL and 34.52 µg·days/mL
- Cmax, free payload in skin [2, 10]: 26 ng/mL and 20 ng/mL and 11 ng/mL
- Cmax, total ADC in skin [2, 10]: 38480 ng/mL and 22000 ng/mL and 12150 ng/mL
- Cmax, total antibody in skin [2, 10]: 44050 ng/mL and 22630 ng/mL and 16280 ng/mL
- AUC1-7, free payload in skin ([2]; SC, mean): 0.02 µg·days/mL
- AUC1-7, total ADC in skin ([2]; SC, mean): 34.29 µg·days/mL
- AUC1-7, total antibody in skin ([2]; SC, mean): 39.57 µg·days/mL
- Cmax, free payload in skin ([2]; SC, mean): 20 ng/mL
